# In patent publication US7625733B2, “Isolation of quiescin-sulfhydryl oxidase from milk” (University of Delaware, priority 2007, dated 2009):
# Where two headings read alike, the source gives them in different places.
# Key:
# [1] = Stimulation of sulfhydryl oxidase activity by added ferrous iron; format: biochemical; conditions: purified QSOX1 from milk
# reduced RNase (rRNase) [2] = test: Oxidation of reduced RNase by QSOX1; format: biochemical
# Procedure: (§1) Oxygen electrode assays were performed in duplicate at 25° C. as described in K. L. Hoober, et al., J. Biol. Chem. 271: 30510-30516, 1996. Assays were initiated by the addition of 5 mM DTT or reduced glutathione (GSH). All thiol substrates were standardized with DTNB before use. Reduced RNase was prepared, characterized and stored as described in K. L. Hoober, et al., J. Biol. Chem. 271: 30510-30516, 1996. Assays of the oxidation of reduced RNase were performed as described by K. L. Hoober et al., J. Biol. Chem. 274: 22147-22150.
# [3] = Inhibition of sulfhydryl oxidase activity by EDTA; format: biochemical; conditions: purified QSOX1 from milk
# [4] = Oxygen electrode assay, oxidation of dithiothreitol by QSOX1; format: biochemical; conditions: substrate DTT, 25° C., 50 mM phosphate buffer, pH 7.5, 1 mM EDTA
# Procedure: as §1
# [5] = Oxygen electrode assay, oxidation of reduced glutathione by QSOX1; format: biochemical; conditions: substrate GSH, 25° C., 50 mM phosphate buffer, pH 7.5, 1 mM EDTA
# Procedure: as §1
# [6] = substrate DTT, data from Hoober et al. 1999, cited from earlier work
# reduced RNase (rRNase) [7] = conditions: substrate rRNase, data from Hoober et al. 1999, cited from earlier work
# [8] = substrate GSH, data from Hoober et al. 1999, cited from earlier work
Molecule,Is activity stimulated by added Ferrous iron? [1],catalytic efficiency relative to egg white QSOX1 (reduced RNase (rRNase) [2]; oxidation of reduced pancreatic RNase),"Km (reduced RNase (rRNase) [2]; substrate rRNase, 25° C., 50 mM phosphate buffer, pH 7.5, 1 mM EDTA) [µM]","kcat (reduced RNase (rRNase) [2]; substrate rRNase, 25° C., 50 mM phosphate buffer, pH 7.5, 1 mM EDTA, thiols oxidized per minute) [s⁻¹]",Is EDTA inhibitory? [3],Km [4] [µM],kcat ([4]; thiols oxidized per minute) [s⁻¹],Km [5] [µM],kcat ([5]; thiols oxidized per minute) [s⁻¹],Km [6] [µM],kcat ([6]; thiols oxidized per minute) [s⁻¹],Km (reduced RNase (rRNase) [7]) [µM],kcat (reduced RNase (rRNase) [7]; thiols oxidized per minute) [s⁻¹],Km [8] [µM],kcat ([8]; thiols oxidized per minute) [s⁻¹]
"Milk QSOX1: Flavin-dependent quiescin Q6 sulfhydryl oxidase 1 isolated and purified from bovine milk, amino acid sequence SEQ ID NO:1 (protein, listed as Bos taurus) SALYSSSDPLTLLRADTVRSTVLGSSSAWAVEFFASWCGHCIAFAPTWKALANDVKDWRPALNLAALDCAEETNSAVCRDFNIPGFPTVRFFKAFSKTGSGTTLSVAGADVQTLRERLIDALESHSDTWPPACPPLEPARLEEITGFFARNNEEYLALIFEKEGSYLGREVTLDLSQHQGIAVRRVLNTERDVVNRFGVTNFPSCYLLSRNGSFSRVPALTESRSFYTTYLRKFSGSTRGAVQTTAAPATTSAVAPTVWKVADRSKIYMADLESALHYILRIEVGKFSVLEGQRLVALKKFMAVLAKYFRGRPLVQNFLHSMNDWLKKQQRKKIPYGFFKNALDSRKEGTVIAEKVNWVGCQGSEPHFRGFPCSLWILFHFLTVQAAQEGVDHPQERAKAQEVLQAIRGYVRFFFGCRECAGHFEQMASGSMHRVGSLNSAVLWFWSSHNKVNARLAGAPSEDPQFPKVQWPPRELCSACHNELRGTPVWDLDNILKFLKTHFSPSNIVLDFPSAGPGPWR",No,two-fold higher,60,22.33,No,86,31.33,4900,29.33,–,–,–,–,–,–
"Egg QSOX1: Avian QSOX1 isolated from egg white; data from Hoober et al. 1999 (protein, UniProt Q8JGM4 43-743, looked up) Sulfhydryl oxidase 1: RSLYSPSDPLELLGADTAERRLLGSPSAWAVEFFASWCGHCIHFAPTWRALAEDVREWRPAVMIAALDCADEANQQVCADFGITGFPTLKFFRAFSKKAEDGIRIAHPTATVADLRRAIITNLEQSGDAWPPACPPLEPASAEEVRSFFHRNTERYLALIFEQSNSFVGREVALDLLQYENVAVRRVLSSEEELVEKFGVTTFPSAYLLLRNGSFSRLPVHAEARSFYTYYLQTLSGVTRGSYRLNVTGSAINETRALQPAQADRSKVYVADLESTVHYTLRVEAGRPAVLAGAQLAALKCYVATLAKYFPGRPSVQTFLQSLDSWLRNWTEPELPRSALKEAVKNKEDASPAAVLPTNVTWVGCRGSEPHFRGYPCGLWTIFHLLTVQAAQGGPDEELPLEVLNTMRCYVKHFFGCQECAQHFEAMAAKSMDQVKSRREAVLWLWSHHNEVNARLAGGDTEDPQFPKLQWPPPDMCPQCHREERGVHTWDEAAVLSFLKEHFSLGNLYLDHAIPIPMAGEEAAASARLSTAGLREKEEEERKEEEEEGEKETEKPHREGETGRPGSSELRRPSIVRRNPRLRALGEDIVDLDSFSEQHFKSKALRAAGRHRRLSKRDTVALHHDAGWERLQVPESREEEEEGGVLRRSPWLRVLGLGFSRLDVSLCIALYFLSSMCLLGMYTFFRLRTRARKGRPGFPVA",–,–,–,–,–,–,–,–,–,150,34.33,115,20.33,20000,46.33
